Experimental data reported in US20050123911A1, “Method of mass spectrometry” (priority 2001, published 2005).
Values joined by “and” are separate entries in the source; they are usually repeats but may differ in a detail not shown here. Equal entries are not always repeated. Gly∗ = not defined here; Ac∗ = not defined here

Assays:
[1] = target: T1, Trypsin (Bos taurus, UniProt P00760); assay: Incubation of single DiMaS peptides with trypsin, LC-MS analysis; format: biochemical; conditions: for Cleaved sequence following incubation with trypsin (FIG. 13): mass spectrum; for Cleavage site on incubation with Trypsin / Cleaved fragment identified after incubation with Trypsin (Table 1): room temperature, 9 h; for Cleavage site on incubation with Trypsin: aliquot every 2 h, LC-MS; for Cleaved fragment identified after incubation with Trypsin (Table 1): HPLC/MS
T1 construct: purchased Sigma T1426
T1 sequence (P00760 24-246): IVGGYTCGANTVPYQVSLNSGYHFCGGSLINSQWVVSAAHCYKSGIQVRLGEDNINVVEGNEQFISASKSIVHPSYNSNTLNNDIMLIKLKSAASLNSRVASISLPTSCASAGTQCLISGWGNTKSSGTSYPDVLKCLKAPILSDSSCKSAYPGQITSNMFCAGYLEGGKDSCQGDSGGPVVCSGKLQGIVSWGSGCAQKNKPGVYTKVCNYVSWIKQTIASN
Method: The peptide (10 μl of 1 mM in Acetonitrile) was treated with a solution of buffer (50 mM HEPES, 150 mM NaCl and 1 μM Zn^2+, 35 μl), and finally Trypsin was added (5 μl, 2.5 μM). The reaction was allowed to take place at room temperature for 9 h and an aliquot of solution was removed for LC-MS analysis.
Peptides 4 and 10 were incubated with trypsin as described above and then analysed by HPLC/MS to give masses according to Table 1.
Compounds 7(2) and 7(13) (10 μl in Acetonitrile) were treated with a solution of buffer (50 mM HEPES, 150 mM NaCl and 1 μM Zn^2+, 35 μl), and finally Trypsin was added (5 μl, 2.5 μM). The reaction was allowed to take place at room temperature for 9 h and an aliquot of solution was removed for LC-MS analysis every 2 h.

[2] = target: T2, neutral endopeptidase (NEP) (Homo sapiens, UniProt P08473); assay: Incubation of DiMaS peptides with NEP, LC-MS analysis; format: biochemical; conditions: room temperature, 9 h, HPLC/MS
T2 construct: purchased BioMep
Method: The peptide (10 μl of 1 mM in Acetonitrile) was treated with a solution of buffer (50 mM HEPES, 150 mM NaCl and 1 μM Zn^2+, 35 μl), and finally neutral endopeptidase (NEP) was added (5 μl, 2.5 μM). The reaction was allowed to take place at room temperature for 9 h and an aliquot of solution was removed for LC-MS analysis.
Peptides 4, 6 and 10 were incubated with NEP as described above and then analysed by HPLC/MS to give masses according to Table 1.

T2 sequence (P08473 whole entry, species assumed): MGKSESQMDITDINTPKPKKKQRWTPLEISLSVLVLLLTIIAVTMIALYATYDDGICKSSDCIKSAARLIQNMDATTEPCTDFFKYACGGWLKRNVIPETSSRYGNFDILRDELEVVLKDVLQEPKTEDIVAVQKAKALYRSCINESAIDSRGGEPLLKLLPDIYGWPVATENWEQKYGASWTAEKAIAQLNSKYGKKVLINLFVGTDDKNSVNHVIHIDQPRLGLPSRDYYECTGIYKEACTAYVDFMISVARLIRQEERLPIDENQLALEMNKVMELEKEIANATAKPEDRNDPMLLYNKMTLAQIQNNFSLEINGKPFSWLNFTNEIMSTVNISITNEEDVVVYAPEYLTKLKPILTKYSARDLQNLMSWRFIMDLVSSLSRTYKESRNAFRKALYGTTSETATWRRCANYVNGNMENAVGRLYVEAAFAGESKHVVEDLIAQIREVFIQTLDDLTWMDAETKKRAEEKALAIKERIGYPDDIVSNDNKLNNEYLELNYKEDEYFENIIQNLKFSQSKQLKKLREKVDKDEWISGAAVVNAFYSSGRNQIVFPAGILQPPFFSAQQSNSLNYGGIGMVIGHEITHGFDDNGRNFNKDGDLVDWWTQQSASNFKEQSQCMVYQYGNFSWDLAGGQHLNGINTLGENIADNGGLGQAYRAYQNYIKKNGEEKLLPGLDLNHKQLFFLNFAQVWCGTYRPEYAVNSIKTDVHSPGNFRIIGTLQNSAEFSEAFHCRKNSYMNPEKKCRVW

Substance | Cleaved sequence following incubation with trypsin (FIG. 13) [1] | Cleavage site on incubation with Trypsin [1] | Cleaved fragment identified after incubation with NEP (Table 1) [2] | Cleaved fragment identified after incubation with Trypsin (Table 1) [1]
Ac-Gly* Ala Ala Phe Lys Arg Ala Gly Ala Ala Lys(Ac*)-NH2 ({Ac-Gly∗}-AAFKRAGAAK(Ac∗)-NH2; reading uncertain; also: isotope labels: Gly* with D2 or H2, Ac* with D3 or H3, printed as Ac-Gly* Ala Ala Phe Lys Arg Ala Gly Ala Ala Lys(Ac*)-NH2) [7(17)] | Ac-Gly-Ala-Ala-Phe-Lys-Arg-OH |  |  | 
Ac-Gly* Ala Gly Arg Ala Asn Ile Asp Phe Ala Lys(Ac*)-NH2 ({Ac-Gly∗}-AGRANIDFAK(Ac∗)-NH2; reading uncertain; also: isotope labels: Gly* with D2 or H2, Ac* with D3 or H3, printed as Ac-Gly* Ala Gly Arg Ala Asn Ile Asp Phe Ala Lys(Ac*)-NH2) [7(2)] | H2N-Ala-Asn-Ile-Asp-Phe-Ala-Lys(ac)-NH2 | cleavage after the arginine residue |  | 
Ac-Gly* Ala Phe Leu Ala Arg Asn Ile Asp Leu Lys(Ac*)-NH2 ({Ac-Gly∗}-AFLARNIDLK(Ac∗)-NH2; reading uncertain; also: isotope labels: Gly* with D2 or H2, Ac* with D3 or H3, printed as Ac-Gly* Ala Phe Leu Ala Arg Asn Ile Asp Leu Lys(Ac*)-NH2) [7(13)] |  | cleavage after the arginine residue |  | 
AcGly-Pro-Arg-Ala-Ala-Ala-Gly-NH2 (Ac-GPRAAAG-NH2; also: partly isotope-labelled (D in acetyl and a Gly), extent not given here) [Peptide 4] |  |  | AcGlyProArgAlaOH and 239, 241: H2NAlaAlaGlyNH2 | 371, 374: AcGlyProArgOH and H2NalaAlaAlaGlyNH2
AcHis-His-Gln-Lys-Leu-Val-Phe-Phe-Ala-Gly-NH2 (Ac-HHQKLVFFAG-NH2; also: partly isotope-labelled (D in acetyl and a Gly), extent not given here) [Peptide 10] |  |  | AcHisHisGlnLysLeuOH and 315, 317: NH2PheAlaGlyNH2 | 591, 594 AcHisHisGlnLysOH and H2NleuValPhePheAlaGlyNH2
AcSer-Glu-Val-Asn-Leu-Asp-Ala-Glu-Phe-Gly-NH2 (Ac-SEVNLDAEFG-NH2; also: partly isotope-labelled (D in acetyl and a Gly), extent not given here) [Peptide 6] |  |  | H2NleuAspAlaGluPheGlyNH2 | 
